Test results taken from patent US20130345145A1, “ATIP3 AND BIOLOGICALLY ACTIVE FRAGMENTS THEREOF FOR USE IN THE TREATMENT OF CANCER” (INSTITUT NATIONAL DE LA SANTE ET DE LA RECHERCHE MEDICALE …, priority 2011, published 2013).

Key:
[1] = system: human breast cancer MCF-7 cells; test: Clonogenicity experiments; format: cell-based; settings: for cell proliferation / number of G418-resistant colonies: MCF-7 transfected with GFP fusion, G418 selection 3 weeks, compared to GFP; for inhibitory effect on colony number relative to that of GFP-ATIP3: MCF7, FIG. 12
Method: For clonogenicity experiments, human breast cancer MCF-7 cells were transfected for 24 h with […] pEGFP-C1 vector or 2 μg of pEGFP-ATIP3BD cDNA. Similar transfection efficiency (50%) was assessed by FACS analysis and cell viability was verified using trypan blue. Cells were then plated at various dilutions in 12 well plates and transfectants were selected by adding geneticin (G418, 1 mg/ml, Gibco) in fresh medium twice a week for 3 weeks. Resistant colonies were stained with 0.5% crystal violet (Sigma) and counted.
The ability of human MCF7 breast cancer cells to form colonies following expression of minimal domains D2N and D2C was analyzed by clonogenicity experiments as described before (see example 2).

microtubule cytoskeleton [2] = test: Immunofluorescence intracellular localization in RPE1 cells; format: cell-based, Human; settings: RPE1 cells transfected 24 hrs, data not shown
Method: Immunofluorescence study was performed as example 2. Briefly, Human retinal pigment epithelial (RPE1) cells were transfected for 24 hrs with GFP-D2N, GFP-D2C or GFP-D2CC constructs prior to fixation in ice-cold methanol and incubation with anti-GFP antibodies as described (page 21, lines 1-9).

microtubule cytoskeleton [3] = test: Immunofluorescence localization in transfected MCF-7 cells; format: cell-based, human; settings: MCF-7 cells transiently transfected 24 h, data not shown
Method: (§1) The pEGFP-ATIP3BD plasmid was transiently transfected into human breast cancer MCF-7 cells. Localization of GFP-ATIP3BD fusion protein at the microtubule cytoskeleton was examined by immunofluorescence, and its ability to interact with stabilized microtubules was determined by co-sedimentation assay.
Exponentially growing human breast cancer MCF-7 cells plated on coverslips were transiently transfected (24 h) with pEGFP-ATIP3BD plasmid, and fixed in ice-cold methanol for 5 min prior to incubation for 1 h at room temperature with primary antibodies: anti-GFP monoclonal antibodies (Roche, diluted 1:200) and human anti-alpha-tubulin antibodies clone F2C (diluted 1:10), as described in Rodrigues-Ferreira et al. (PLoS One. 2009; 4(10):e7239 2009). After extensive washing, cells were incubated for 30 min at room temperature with appropriate secondary Cy-2-conjugated anti-human and/or Cy-3-conjugated anti-mouse antibodies (Jackson Laboratories, Interchim, France) diluted 1:500. Coverslips were mounted on glass slides using Glycergel Mounting Medium (DakoCytomation) and examined with a Leica TCS SP2 AOBS confocal microscope using appropriate filters. Image analysis was performed with NIH ImageJ software.

stabilized microtubules = test: Microtubule co-sedimentation assay; format: binding, human; settings: MCF-7 lysate, taxol 20 μM, data not shown
Method: as §1
For microtubule cosedimentation assay, human breast cancer MCF-7 cells were transiently transfected (24 h) with pEGFP-ATIP3BD plasmid and incubated for 20 min at 4° C. in PEM buffer (100 mM PIPES, pH 6.9, 1 mM MgSO4, 1 mM EGTA), scraped and sonicated prior to centrifugation at 15000 rpm for 10 min, 4° C. Clarified samples were incubated with taxol (20 μM) in the presence of GTP (1 mM) and DTT (1 mM) for 45 min at 37° C. and were spun at 70 000 g for 30 min at 30° C. through a cushion buffer containing 40% glycerol, 20 μM taxol and 1 mM GTP. The supernatant (S) and pellet (P) fractions were collected separately and subsequently immunoblotted with anti-GFP (Roche) and anti-alpha-tubulin (Sigma) antibodies.

B1: ATIP3a: microtubule-associated tumor suppressor 1 isoform 1, SEQ ID NO: 1 (protein, listed as Homo sapiens)
chain: MTDDNSDDKIEDELQTFFTSDKDGNTHAYNPKSPPTQNSSASSVNWNSANPDDMVVDYETDPAVVTGENISLSLQGVEVFGHEKSSSDFISKQVLDMHKDSICQCPALVGTEKPKYLQHSCHSLEAVEGQSVEPSLPFVWKPNDNLNCAGYCDALELNQTFDMTVDKVNCTFISHHAIGKSQSFHTAGSLPPTGRRSGSTSSLSYSTWTSSHSDKTHARETTYDRESFENPQVTPSEAQDMTYTAFSDVVMQSEVFVSDIGNQCACSSGKVTSEYTDGSQQRLVGEKETQALTPVSDGMEVPNDSALQEFFCLSHDESNSEPHSQSSYRHKEMGQNLRETVSYCLIDDECPLMVPAFDKSEAQVLNPEHKVTETEDTQMVSKGKDLGTQNHTSELILSSPPGQKVGSSFGLTWDANDMVISTDKTMCMSTPVLEPTKVTFSVSPIEATEKCKKVEKGNRGLKNIPDSKEAPVNLCKPSLGKSTIKTNTPIGCKVRKTEIISYPRPNFKNVKAKVMSRAVLQPKDAALSKVTPRPQQTSASSPSSVNSRQQTVLSRTPRSDLNADKKAEILINKTHKQQFNKLITSQAVHVTTHSKNASHRVPRTTSAVKSNQEDVDKASSSNSACETGSVSALFQKIKGILPVKMESAECLEMTYVPNIDRISPEKKGEKENGTSMEKQELKQEIMNETFEYGSLFLGSASKTTTTSGRNISKPDSCGLRQIAAPKAKVGPPVSCLRRNSDNRNPSADRAVSPQRIRRVSSSGKPTSLKTAQSSWVNLPRPLPKSKASLKSPALRRTGSTPSIASTHSELSTYSNNSGNAAVIKYEEKPPKPAFQNGSSGSFYLKPLVSRAHVHLMKTPPKGPSRKNLFTALNAVEKSRQKNPRSLCIQPQTAPDALPPEKTLELTQYKTKCENQSGFILQLKQLLACGNTKFEALTVVIQHLLSEREEALKQHKTLSQELVNLRGELVTASTTCEKLEKARNELQTVYEAFVQQHQAEKTERENRLKEFYTREYEKLRDTYIEEAEKYKMQLQEQFDNLNAAHETSKLEIEASHSEKLELLKKAYEASLSEIKKGHEIEKKSLEDLLSEKQESLEKQINDLKSENDALNEKLKSEEQKRRAREKANLKNPQIMYLEQELESLKAVLEIKNEKLHQQDIKLMKMEKLVDNNTALVDKLKRFQQENEELKARMDKHMAISRQLSTEQAVLQESLEKESKVNKRLSMENEELLWKLHNGDLCSPKRSPTSSAIPLQSPRNSGSFPSPSISPR
modifications: (1)..(409) acidic N-terminal region
cell proliferation / number of G418-resistant colonies [1]: inhibit cell proliferation and reduce cancer cell growth

B2: D2C: domain of ATIP3BD, amino-acid positions 705-874 of SEQ ID NO: 1, expressed as GFP fusion (protein, listed as Homo sapiens)
chain: TTSGRNISKPDSCGLRQIAAPKAKVGPPVSCLRRNSDNRNPSADRAVSPQRIRRVSSSGKPTSLKTAQSSWVNLPRPLPKSKASLKSPALRRTGSTPSIASTHSELSTYSNNSGNAAVIKYEEKPPKPAFQNGSSGSFYLKPLVSRAHVHLMKTPPKGPSRKNLFTALNA
modifications: GFP fusion; (1)..(409) acidic N-terminal region
inhibitory effect on colony number relative to that of GFP-ATIP3 [1]: 78%
cell proliferation / number of G418-resistant colonies [1]: strongly reduces the number of G418-resistant colonies
intracellular localization (microtubule cytoskeleton [2]): associate with the microtubule cytoskeleton

B3: ATIP3b: microtubule-associated tumor suppressor 1 isoform 2, SEQ ID NO: 6 (protein, listed as Homo sapiens)
chain: MTDDNSDDKIEDELQTFFTSDKDGNTHAYNPKSPPTQNSSASSVNWNSANPDDMVVDYETDPAVVTGENISLSLQGVEVFGHEKSSSDFISKQVLDMHKDSICQCPALVGTEKPKYLQHSCHSLEAVEGQSVEPSLPFVWKPNDNLNCAGYCDALELNQTFDMTVDKVNCTFISHHAIGKSQSFHTAGSLPPTGRRSGSTSSLSYSTWTSSHSDKTHARETTYDRESFENPQVTPSEAQDMTYTAFSDVVMQSEVFVSDIGNQCACSSGKVTSEYTDGSQQRLVGEKETQALTPVSDGMEVPNDSALQEFFCLSHDESNSEPHSQSSYRHKEMGQNLRETVSYCLIDDECPLMVPAFDKSEAQVLNPEHKVTETEDTQMVSKGKDLGTQNHTSELILSSPPGQKVGSSFGLTWDANDMVISTDKTMCMSTPVLEPTKVTFSVSPIEATEKCKKVEKGNRGLKNIPDSKEAPVNLCKPSLGKSTIKTNTPIGCKVRKTEIISYPRPNFKNVKAKVMSRAVLQPKDAALSKVTPRPQQTSASSPSSVNSRQQTVLSRTPRSDLNADKKAEILINKTHKQQFNKLITSQAVHVTTHSKNASHRVPRTTSAVKSNQEDVDKASSSNSACETGSVSALFQKIKGILPVKMESAECLEMTYVPNIDRISPEKKGEKENGTSMEKQELKQEIMNETFEYGSLFLGSASKTTTTSGRNISKPDSCGLRQIAAPKAKVGPPVSCLRRNSDNRNPSADRAVSPQRIRRVSSSAGNAAVIKYEEKPPKPAFQNGSSGSFYLKPLVSRAHVHLMKTPPKGPSRKNLFTALNAVEKSRQKNPRSLCIQPQTAPDALPPEKTLELTQYKTKCENQSGFILQLKQLLACGNTKFEALTVVIQHLLSEREEALKQHKTLSQELVNLRGELVTASTTCEKLEKARNELQTVYEAFVQQHQAEKTERENRLKEFYTREYEKLRDTYIEEAEKYKMQLQEQFDNLNAAHETSKLEIEASHSEKLELLKKAYEASLSEIKKGHEIEKKSLEDLLSEKQESLEKQINDLKSENDALNEKLKSEEQKRRAREKANLKNPQIMYLEQELESLKAVLEIKNEKLHQQDIKLMKMEKLVDNNTALVDKLKRFQQENEELKARMDKHMAISRQLSTEQAVLQESLEKESKVNKRLSMENEELLWKLHNGDLCSPKRSPTSSAIPLQSPRNSGSFPSPSISPR
modifications: (1)..(409) acidic N-terminal region
cell proliferation / number of G418-resistant colonies [1]: inhibit cell proliferation and reduce cancer cell growth

B4: D2N: domain of ATIP3BD, amino-acid positions 410-634 of SEQ ID NO: 1, expressed as GFP fusion (protein, listed as Homo sapiens)
chain: GLTWDANDMVISTDKTMCMSTPVLEPTKVTFSVSPIEATEKCKKVEKGNRGLKNIPDSKEAPVNLCKPSLGKSTIKTNTPIGCKVRKTEIISYPRPNFKNVKAKVMSRAVLQPKDAALSKVTPRPQQTSASSPSSVNSRQQTVLSRTPRSDLNADKKAEILINKTHKQQFNKLITSQAVHVTTHSKNASHRVPRTTSAVKSNQEDVDKASSSNSACETGSVSALF
modifications: GFP fusion; (1)..(409) acidic N-terminal region
inhibitory effect on colony number relative to that of GFP-ATIP3 [1]: 71%
cell proliferation / number of G418-resistant colonies [1]: strongly reduces the number of G418-resistant colonies
intracellular localization (microtubule cytoskeleton [2]): associate with the microtubule cytoskeleton

B5: ATIP3BD: basic central domain of ATIP3, residues 410-874 of SEQ ID NO: 1, expressed as GFP fusion (protein, listed as Homo sapiens)
chain: GLTWDANDMVISTDKTMCMSTPVLEPTKVTFSVSPIEATEKCKKVEKGNRGLKNIPDSKEAPVNLCKPSLGKSTIKTNTPIGCKVRKTEIISYPRPNFKNVKAKVMSRAVLQPKDAALSKVTPRPQQTSASSPSSVNSRQQTVLSRTPRSDLNADKKAEILINKTHKQQFNKLITSQAVHVTTHSKNASHRVPRTTSAVKSNQEDVDKASSSNSACETGSVSALFQKIKGILPVKMESAECLEMTYVPNIDRISPEKKGEKENGTSMEKQELKQEIMNETFEYGSLFLGSASKTTTTSGRNISKPDSCGLRQIAAPKAKVGPPVSCLRRNSDNRNPSADRAVSPQRIRRVSSSGKPTSLKTAQSSWVNLPRPLPKSKASLKSPALRRTGSTPSIASTHSELSTYSNNSGNAAVIKYEEKPPKPAFQNGSSGSFYLKPLVSRAHVHLMKTPPKGPSRKNLFTALNA
modifications: GFP fusion; (1)..(409) acidic N-terminal region
localization of GFP fusion protein at the microtubule cytoskeleton (microtubule cytoskeleton [3]): localizes at the microtubule cytoskeleton
co-sedimentation with stabilized microtubules (stabilized microtubules): co-sediments with stabilized microtubules
cell proliferation / number of G418-resistant colonies [1]: mimic the inhibitory effects of the entire ATIP3a and ATIP3b proteins
